These results are taken from patent US20040146931.

For this data set, the system named is Gal11P-P53zf zinc finger (artificial). Nature of the data set: cell_activity. The conditions noted are these: EGFP over control, in vivo site selection.

Take “CGGGACACGTG (double strand) [in vivo selected P53zf site 1]”: the binding (matches the consensus) was over 2 fold.
“CGGGACACGGG (double strand) [in vivo selected P53zf site 3]”: the binding is over 2 fold.
On the same count and under the same terms, then “CGGGACATGTG (double strand) [in vivo selected P53zf site 2]”, with over 2 fold.
